According to patent publication US20210324057A1:

Tests used:
Experiment in all cases: GST pull-down, LC-MS/MS; score of protein identification
[1] = molecular target: Electron transfer flavoprotein, α subunit
ATP synthase, O subunit = molecular target: ATP synthase, O subunit
ATP synthase, β chain = molecular target: ATP synthase, β chain
Chain of ATP synthase, β chain (P56480 47-529): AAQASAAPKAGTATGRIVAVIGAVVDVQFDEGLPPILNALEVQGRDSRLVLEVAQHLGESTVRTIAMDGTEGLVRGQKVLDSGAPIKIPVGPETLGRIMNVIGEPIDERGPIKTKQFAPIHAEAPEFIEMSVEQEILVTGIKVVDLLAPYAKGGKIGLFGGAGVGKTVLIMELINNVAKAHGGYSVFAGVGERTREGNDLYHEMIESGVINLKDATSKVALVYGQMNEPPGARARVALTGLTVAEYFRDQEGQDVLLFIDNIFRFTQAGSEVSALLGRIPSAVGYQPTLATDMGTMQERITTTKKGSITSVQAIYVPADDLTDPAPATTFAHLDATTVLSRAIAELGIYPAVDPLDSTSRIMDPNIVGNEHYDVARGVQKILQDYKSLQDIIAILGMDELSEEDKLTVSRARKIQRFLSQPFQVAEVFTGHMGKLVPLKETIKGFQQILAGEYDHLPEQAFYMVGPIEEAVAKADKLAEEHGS

Chain of Electron transfer flavoprotein, α subunit (Q99LC5 20-333): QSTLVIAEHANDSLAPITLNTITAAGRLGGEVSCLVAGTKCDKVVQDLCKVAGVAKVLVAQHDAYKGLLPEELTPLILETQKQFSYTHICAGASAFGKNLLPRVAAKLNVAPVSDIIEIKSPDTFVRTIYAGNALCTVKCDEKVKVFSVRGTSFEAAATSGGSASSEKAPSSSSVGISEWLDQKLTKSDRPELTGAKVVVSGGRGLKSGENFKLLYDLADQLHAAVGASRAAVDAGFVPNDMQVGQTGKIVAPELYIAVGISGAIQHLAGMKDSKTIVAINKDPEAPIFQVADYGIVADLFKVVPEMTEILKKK
Chain of ATP synthase, O subunit (Q9DB20 24-213): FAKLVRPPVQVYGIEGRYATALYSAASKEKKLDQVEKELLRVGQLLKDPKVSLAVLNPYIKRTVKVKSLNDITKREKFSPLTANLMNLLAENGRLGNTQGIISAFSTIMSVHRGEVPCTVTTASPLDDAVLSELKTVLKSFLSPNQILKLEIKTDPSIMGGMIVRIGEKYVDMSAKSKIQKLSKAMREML

Unused Score [1]: 11.6
Unused Score (ATP synthase, O subunit): 8.44
Unused Score (ATP synthase, β chain): 5.94
Substance: GST-LRRC8A (fusion protein comprised of the leucine rich C-terminus of LRRC8A and GST)
